Laboratory results: article PMC3094755, “The DNA-Binding Domain of Human PARP-1 Interacts with DNA Single-Strand Breaks as a Monomer through Its Second Zinc Finger”

Legend:
Conditions in all cases: protein: recombinant; label: fluorescein-dT at T8; single-chain dumbbell, 18 bp with central nick, two tetraloops
PARP-1 F2 R138I = PARP-1 F2 R138I (Homo sapiens, UniProt P09874 103-214, R138I); assay: fluorescence anisotropy; 25 mM NaCl, one-site fit; 50 mM Tris-HCl pH 7.0, 150 uM ZnSO4, 4 mM DTT, 25 C; NaCl 0-200 mM (T2, as in cof; 10 nM DNA) or 25 mM (T3 mutants; 25 nM DNA)
PARP-1 F2 K197I = PARP-1 F2 K197I (Homo sapiens, UniProt P09874 103-214, K197I); assay: as above
PARP-1 F2 S120G = PARP-1 F2 S120G (Homo sapiens, UniProt P09874 103-214, S120G); assay: as above
PARP-1 F2 [1] = target: T1, PARP-1 F2 (Homo sapiens, UniProt P09874 103-214); assay: as above
PARP-1 F2 K131I/G135D = PARP-1 F2 K131I/G135D (Homo sapiens, UniProt P09874 103-214, K131I;G135D); assay: as above
PARP-1 F2 K131I = PARP-1 F2 K131I (Homo sapiens, UniProt P09874 103-214, K131I); assay: as above
PARP-1 F2 K142I = PARP-1 F2 K142I (Homo sapiens, UniProt P09874 103-214, K142I); assay: as above
[2] = target: T2, PARP-1 F1+F2 (24-kDa DBD) (Homo sapiens, UniProt P09874 1-214); assay: fluorescence anisotropy; 0 mM NaCl; tight site (KD1); FA: 50 mM Tris-HCl pH 7, 150 uM ZnSO4, 4 mM DTT, 0-200 mM NaCl, 25 C, 10 nM DNA (mutants 25 nM DNA, 25 mM NaCl); EMSA: 50 mM Tris-HCl pH 7.4, 150 uM ZnSO4, 4 mM DTT, 10% glycerol, RT incubation, gel at 4 C; NMR complexes: 50 mM Tris pH 7.0, 150 uM ZnSO4, 4 mM DTT, 37 C
[3] = target: T2, PARP-1 F1+F2 (24-kDa DBD); assay: fluorescence anisotropy; 150; 50 mM Tris-HCl pH 7.0, 150 uM ZnSO4, 4 mM DTT, 25 C; NaCl 0-200 mM (T2, as in cof; 10 nM DNA) or 25 mM (T3 mutants; 25 nM DNA)
[4] = target: T2, PARP-1 F1+F2 (24-kDa DBD); assay: fluorescence anisotropy; 0; 50 mM Tris-HCl pH 7.0, 150 uM ZnSO4, 4 mM DTT, 25 C; NaCl 0-200 mM (T2, as in cof; 10 nM DNA) or 25 mM (T3 mutants; 25 nM DNA)
[5] = target: T2, PARP-1 F1+F2 (24-kDa DBD); assay: fluorescence anisotropy; 100; 50 mM Tris-HCl pH 7.0, 150 uM ZnSO4, 4 mM DTT, 25 C; NaCl 0-200 mM (T2, as in cof; 10 nM DNA) or 25 mM (T3 mutants; 25 nM DNA)
PARP-1 F2 [6] = target: T1, PARP-1 F2; assay: as above
[7] = target: T2, PARP-1 F1+F2 (24-kDa DBD); assay: fluorescence anisotropy; 50; 50 mM Tris-HCl pH 7.0, 150 uM ZnSO4, 4 mM DTT, 25 C; NaCl 0-200 mM (T2, as in cof; 10 nM DNA) or 25 mM (T3 mutants; 25 nM DNA)
PARP-1 F2 [8] = target: T1, PARP-1 F2; assay: as above

T1 sequence (P09874 103-214): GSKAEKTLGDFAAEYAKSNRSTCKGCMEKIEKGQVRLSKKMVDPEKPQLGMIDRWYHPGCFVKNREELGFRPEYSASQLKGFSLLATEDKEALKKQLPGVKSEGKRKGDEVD
T2 sequence (P09874 1-214): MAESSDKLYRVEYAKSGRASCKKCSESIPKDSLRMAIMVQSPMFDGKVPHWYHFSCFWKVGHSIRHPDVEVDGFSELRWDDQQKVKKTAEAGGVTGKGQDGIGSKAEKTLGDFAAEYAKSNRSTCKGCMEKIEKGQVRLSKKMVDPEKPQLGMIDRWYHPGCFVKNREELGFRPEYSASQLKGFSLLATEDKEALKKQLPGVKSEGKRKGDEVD
PARP-1 F2 K131I/G135D, sequence (P09874 103-214 K131I/G135D): as the sequence (P09874 103-214) above, with K29I, G33D counted along it
PARP-1 F2 K131I, sequence (P09874 103-214 K131I): as the sequence (P09874 103-214) above, with K29I counted along it
PARP-1 F2 K142I, sequence (P09874 103-214 K142I): as the sequence (P09874 103-214) above, with K40I counted along it
PARP-1 F2 S120G, sequence (P09874 103-214 S120G): as the sequence (P09874 103-214) above, with S18G counted along it
PARP-1 F2 R138I, sequence (P09874 103-214 R138I): as the sequence (P09874 103-214) above, with R36I counted along it
PARP-1 F2 K197I, sequence (P09874 103-214 K197I): as the sequence (P09874 103-214) above, with K95I counted along it

**Q.** What does the source list for CGGTCGATCGTAAGATCGACCGGCGCTGGAGCTTGCTCCAGCGC (structured_DNA, 5'-phosphate) [44-nt nicked dumbbell, 5'-phosphate, fluorescein-dT]?
**A.** Kd (PARP-1 F2 R138I): 19800 nM; Kd (PARP-1 F2 K197I): 664 nM; Kd (PARP-1 F2 S120G): 2430 nM; Kd (PARP-1 F2 [1]): 343 nM; Kd (PARP-1 F2 K131I/G135D): 3750 nM; Kd (PARP-1 F2 K131I): 1570 nM; Kd (PARP-1 F2 K142I): 1180 nM; Kd [2]: 5.7 nM; Kd [3]: 24.6 nM; Kd [4]: 5.75 nM; Kd [5]: 9.37 nM; Kd (PARP-1 F2 [6]): 146 nM; Kd [7]: 8.02 nM; Kd (PARP-1 F2 [8]): 130 nM
